Experiments:
[1] = target: CXCR4 (human) (UniProt P61073); assay: cell-based or functional assay
[2] = target: chemokine receptors on THP-1 cells; assay: biotinylated peptide on THP-1 cells, streptavidin-peroxidase, Scatchard; with and without 100 µM unlabeled peptide 3 (printed as affinity constant)
[3] = target: chemokine receptors on THP-1 cells; assay: biotinylated peptide at 100 µM on 4×10^5 THP-1 cells, streptavidin-peroxidase, TMB
[4] = target: chemokine receptors on the surface of Jurkat cells; assay: biotinylated peptide at 100 µM on 10^6 Jurkat cells, streptavidin-peroxidase, TMB
[5] = target: chemokine receptors on the surface of Jurkat cells; assay: biotinylated peptide on cells, streptavidin-peroxidase

Sequence of CXCR4 (human) (P61073 whole entry): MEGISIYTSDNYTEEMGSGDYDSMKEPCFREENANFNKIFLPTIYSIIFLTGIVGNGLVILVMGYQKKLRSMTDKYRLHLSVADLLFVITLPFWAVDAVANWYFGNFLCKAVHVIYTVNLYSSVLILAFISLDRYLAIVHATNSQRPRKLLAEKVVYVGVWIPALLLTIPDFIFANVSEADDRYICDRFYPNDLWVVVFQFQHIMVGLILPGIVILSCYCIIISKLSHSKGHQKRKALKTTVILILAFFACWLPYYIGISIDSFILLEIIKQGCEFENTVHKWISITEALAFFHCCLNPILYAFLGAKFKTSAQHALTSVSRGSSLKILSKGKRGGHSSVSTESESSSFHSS

| percentage inhibition of SDF1α induced THP-1 migration at 100 µM [1] | Kd [2] | Substance | ΔA450 nm, alone [3] | ΔA450 nm, specific binding [3] | ΔA450 nm, alone [4] | ΔA450 nm, specific binding [4] | fold specific binding against THP-1 cells [5] |
| --- | --- | --- | --- | --- | --- | --- | --- |
| 87% |  | KLK (peptide) |  |  |  |  |  |
|  | 250 nM | N-terminal biotin-labeled peptide 2(1-15)[MCP-1] |  |  |  |  |  |
|  |  | gp120:V3(BaL) (peptide) | 0.642 ΔA450 nm | 0.535 ΔA450 nm | 0.167 ΔA450 nm | < 0 ΔA450 nm |  |
|  |  | gp120:V3(IIIb) (peptide) | 0.268 ΔA450 nm | 0.137 ΔA450 nm | 0.878 ΔA450 nm | 0.689 ΔA450 nm | 5 fold |
